Measurements reported in paper doi:10.1101/2021.01.26.428356, “Sequence signatures of two IGHV3-53/3-66 public clonotypes to SARS-CoV-2 receptor binding domain” (bioRxiv, 2021).

Target: T1, Fc-tagged receptor-binding domain (RBD) of the SARS-CoV-2 spike (S) protein (SARS-CoV-2, Wuhan-Hu-1 (GenBank …, UniProt P0DTC2))
T1 construct: also called SARS-CoV-2 RBD; SARS-CoV-2 S RBD-Fc; not shown: Fc, C-terminal, kept
Experiment: BLI; Octet Red96e; Fc-tagged RBD loaded onto the biosensor (streptavidin biosensors as printed), Fab in solution; 1x PBS pH 7.4, 0.01% w/v BSA, 0.002% v/v Tween 20; 60 s association, 60 s dissociation; 1:1 binding model
Details: both partners purified

Row | Binder | Kd [nM] | binding result
1 | COV107-23 Fab, wild type (F58) (Fab, V domains shown, also called WT COV107-23; clonotype 1 antibody; source: Expi293F, transiently co-transfected, purified (CaptureSelect CH1-XL column)) VH: EVQLVESGGGLIQPGGSLRLSCAASGFTVSSNYMSWVRQAPGKGLEWVSVIYSGGSTFYADSVKGRFTISRDNSKNTLYLQMNSLRAEDTAVYYCARDLGTGLFDYWGQGTLVTVSS VL: DIQLTQSPSFLSASVGDRVTITCRASQGISSYLAWYQQKPGKAPKLLIYAASTLQSGVPSRFSGSGSGTEFTLTISSLQPEDFATYYCQQLDSYPPGTFGPGTKVDIK | 1 | 
2 | COVA2-20 Fab, wild type (Y58) (Fab, V domains shown) VH: EVQLVESGGGLIQPGGSLRLSCAASGFTVSSNYMSWVRQAPGKGLEWVSVIYSGGSTYYADSVKGRFTISRDNSKNTLYLQMNSLRAEDTAVYYCASPLLLTPPDYYYYMDVWGKGTMVTVSS VL: DVVMTQSPSSLSVSVGDRVTITCRASQGIRNDLGWYQQKPGKAPKRLIYAASSLQSGVPSRFSGSGSGTEFTLTISSLQPEDFATYYCLQHNSYLWTFGQGTKLEIK |  | binds
